Measurements reported in patent US20200093883A1 (published 2020).
Square brackets hold non-standard residues; d marks the D form. Ends that are not written are not given here.

B1: SEQ ID NO: 172 (peptide)
peptide: [dR]KKR[dR]QRR[dR]RP[dK]RP[dA]TLNL[dF]-NH2
modifications: N-terminus assumed
SMILES: CC(C)C[C@H](NC(=O)[C@H](CC(N)=O)NC(=O)[C@H](CC(C)C)NC(=O)[C@@H](NC(=O)[C@@H](C)NC(=O)[C@@H]1CCCN1C(=O)[C@H](CCCNC(=N)N)NC(=O)[C@@H](CCCCN)NC(=O)[C@@H]1CCCN1C(=O)[C@H](CCCNC(=N)N)NC(=O)[C@@H](CCCNC(=N)N)NC(=O)[C@H](CCCNC(=N)N)NC(=O)[C@H](CCCNC(=N)N)NC(=O)[C@H](CCC(N)=O)NC(=O)[C@@H](CCCNC(=N)N)NC(=O)[C@H](CCCNC(=N)N)NC(=O)[C@H](CCCCN)NC(=O)[C@H](CCCCN)NC(=O)[C@H](N)CCCNC(=N)N)[C@@H](C)O)C(=O)N[C@H](Cc1ccccc1)C(N)=O

Assays:
Assay in all cases: AlphaScreen
hJNK3 = target: hJNK3
hJNK2 = target: hJNK2
hJNK1 = target: hJNK1

| Binder | IC50 (hJNK3) [µM] | IC50 (hJNK2) [µM] | IC50 (hJNK1) [µM] |
| --- | --- | --- | --- |
| B1 | 0.102 | 0.0547 | 0.722 |
| [dD][dQ][dS][dR][dP][dV][dQ][dP][dF][dL][dN][dL][dT][dT][dP][dR][dK][dP][dR][dP][dP][dR][dR][dR][dQ][dR][dR][dK][dK][dR]G [SEQ ID NO: 197] | 1.29 | 0.802 | 24.4 |
